Starred links: 1 amine or outer side, 2 acyl side, 3 side chain; linkers in the order of their positions; H or OH if unused. Non-standard residues stand in square brackets, D forms with d. Groups on a side chain read outwards from the residue. No end group written: not given here. *: point of attachment. C20 diacid = O=C(O)CCCCCCCCCCCCCCCCCCC(=O)*; C18 diacid = O=C(O)CCCCCCCCCCCCCCCCC(=O)*; γGlu = O=C(O)[C@H](CCC(=O)[*:2])N[*:1]; αMeL = CC(C)C[C@](C)(N)C(=O)O; Dap = NC[C@H](N)C(=O)O; AEEA = NCCOCCOCC(=O)O; Aib = CC(C)(N)C(=O)O
Tests used:
Experiment in all cases: cell-based or functional assay
[1] = target: human GLP-1R (SNAP-GLP-1R expressed in HEK293 cells) (human) (UniProt P43220)
Chain of human GLP-1R (SNAP-GLP-1R expressed in HEK293 cells) (human) (P43220 24-463): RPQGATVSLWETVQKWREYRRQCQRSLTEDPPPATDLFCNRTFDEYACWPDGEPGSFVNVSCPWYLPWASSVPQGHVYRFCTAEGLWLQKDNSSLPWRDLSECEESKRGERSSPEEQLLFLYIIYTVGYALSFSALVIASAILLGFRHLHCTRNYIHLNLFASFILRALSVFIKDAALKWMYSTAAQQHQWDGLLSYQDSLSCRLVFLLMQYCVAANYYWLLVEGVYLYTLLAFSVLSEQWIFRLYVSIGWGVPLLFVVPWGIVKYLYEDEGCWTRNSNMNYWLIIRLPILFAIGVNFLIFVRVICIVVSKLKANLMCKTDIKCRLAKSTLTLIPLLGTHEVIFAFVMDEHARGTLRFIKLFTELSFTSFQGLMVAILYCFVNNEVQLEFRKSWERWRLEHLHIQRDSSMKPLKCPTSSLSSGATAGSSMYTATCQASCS

[2] = target: human glucagon receptor (human) (UniProt P47871)
Chain of human glucagon receptor (human) (P47871 26-477): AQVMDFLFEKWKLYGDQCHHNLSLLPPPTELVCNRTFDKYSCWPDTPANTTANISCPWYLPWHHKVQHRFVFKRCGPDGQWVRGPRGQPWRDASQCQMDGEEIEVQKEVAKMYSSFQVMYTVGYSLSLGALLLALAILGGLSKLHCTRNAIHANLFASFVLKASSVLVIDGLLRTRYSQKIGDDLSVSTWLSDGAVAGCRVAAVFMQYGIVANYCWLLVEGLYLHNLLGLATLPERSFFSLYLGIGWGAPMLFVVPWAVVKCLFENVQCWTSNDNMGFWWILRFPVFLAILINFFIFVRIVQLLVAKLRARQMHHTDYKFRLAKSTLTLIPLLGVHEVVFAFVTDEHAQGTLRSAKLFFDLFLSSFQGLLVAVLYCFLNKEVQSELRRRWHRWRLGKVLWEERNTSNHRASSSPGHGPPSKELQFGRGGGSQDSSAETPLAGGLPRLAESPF

[3] = target: T1, human GIP receptor (human) (UniProt P48546)
T1 sequence (looked up): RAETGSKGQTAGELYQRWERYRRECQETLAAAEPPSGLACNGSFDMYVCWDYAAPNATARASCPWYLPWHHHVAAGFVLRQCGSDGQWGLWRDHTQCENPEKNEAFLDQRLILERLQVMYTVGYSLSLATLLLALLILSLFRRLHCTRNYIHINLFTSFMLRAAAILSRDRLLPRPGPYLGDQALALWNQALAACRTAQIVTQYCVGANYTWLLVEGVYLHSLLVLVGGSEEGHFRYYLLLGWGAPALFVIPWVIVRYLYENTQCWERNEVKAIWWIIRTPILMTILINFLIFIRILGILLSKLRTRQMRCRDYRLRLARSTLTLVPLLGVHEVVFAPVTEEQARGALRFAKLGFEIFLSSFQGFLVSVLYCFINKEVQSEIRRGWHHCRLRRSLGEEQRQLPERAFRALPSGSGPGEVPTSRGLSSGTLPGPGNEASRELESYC

hGLP-1R = hGLP-1R (Homo sapiens, UniProt P43220)
Chain of hGLP-1R (P43220 24-463): as the sequence (P43220 24-463) above

Binder	GLP1R Internalization EC50 [1] [nM]	Internalization % TOP [1] [%]	cAMP Rel EC50, nM (in the presence of 1% HSA) [2] [nM]	cAMP Rel EC50, nM (in the presence of 1% HSA) [3] [nM]	cAMP Rel EC50, nM (in the presence of 1% HSA) (hGLP-1R) [nM]	Relative cAMP EC50 [2] [nM]	Relative cAMP EC50 [3] [nM]	Relative cAMP EC50 (hGLP-1R) [nM]	cAMP Rel EC50, nM (1% HSA) [2] [nM]	cAMP Rel EC50, nM (1% HSA) [3] [nM]	cAMP Rel EC50, nM (1% HSA) (hGLP-1R) [nM]	cAMP Rel EC50 (1% HSA) [2] [nM]	cAMP Rel EC50 (1% HSA) [3] [nM]	cAMP Rel EC50 (1% HSA) (hGLP-1R) [nM]
YXQGTFTSDXSRXLDKKAQXAFIEYLLEXGPSSGAPPPSGE (synthetic construct; SITE 2: note = 2-Aminoisobutyric Acid; SITE 10: note = 3-(4-Pyridyl)-L-alanine; SITE 13: note = alpha-methyl-leucine; SITE 17: note = Lysine is chemically modified through conjugation of the epsilon-amino group of the Lysine side chain with (2-[2-(2-Amino-ethoxy)-ethoxy]-acetyl)) [Example 114]	47.2	62.9	1120	19.6	1370	–	–	–	–	–	–	–	–	–
YXQGTFTSDFSXXLDKKAQXAFIEYLLEGGPSSGAPPPSGE (synthetic construct; SITE 2: note = 2-Aminoisobutyric Acid; SITE 12: note = L-ornithine; SITE 13: note = alpha-methyl-leucine; SITE 17: note = Lysine is chemically modified through conjugation of the epsilon-amino group of the Lysine side chain with (2-[2-(2-Amino-ethoxy)-ethoxy]-acetyl)2-(gamma-Glu)) [Example 107]	150	45.1	1690	61.3	1110	10.8	0.426	8.5	–	–	–	–	–	–
YXQGTFTSDYSXXLDKKAQXAFIEYLLEGGESSGAPPPSGS (synthetic construct; SITE 2: note = 2-Aminoisobutyric Acid; SITE 12: note = L-ornithine; SITE 13: note = alpha-methyl-leucine; SITE 17: note = Lysine is chemically modified through conjugation of the epsilon-amino group of the Lysine side chain with (2-[2-(2-Amino-ethoxy)-ethoxy]-acetyl)-(gamma-Glu)) [Example 359]	49.6	74.4	–	–	–	2.1	0.281	4.61	957	103	826	–	–	–
YXQGTFTSDYSRXLDKKAQXAFIEYLLEGGESSGAPPPSGS (synthetic construct; SITE 2: note = 2-Aminoisobutyric Acid; SITE 13: note = alpha-methyl-leucine; SITE 17: note = Lysine is chemically modified through conjugation of the epsilon-amino group of the Lysine side chain with (2-[2-(2-Amino-ethoxy)-ethoxy]-acetyl)-(gamma-Glu)-CO-(CH2) 16-CO2H; SITE 20: n) [Example 361]	50.4	73	–	–	–	–	–	–	987	46.3	376	–	–	–
YXQGTFTSDFSXXLDKKAQXAFIEYLLEXGPSSGAPPPSGE (synthetic construct; SITE 2: note = 2-Aminoisobutyric Acid; SITE 12: note = L-ornithine; SITE 13: note = alpha-methyl-leucine; SITE 17: note = Lysine is chemically modified through conjugation of the epsilon-amino group of the Lysine side chain with (2-[2-(2-Amino-ethoxy)-ethoxy]-acetyl)-(gamma-Glu)) [Example 110]	28.3	42.5	627	19.8	821	2.45	0.102	2.99	–	–	–	–	–	–
YXQGTFTSDFSXXLDKKAQXAFIEWLLEGGPSSGAPPPSGE (synthetic construct; SITE 2: note = 2-Aminoisobutyric Acid; SITE 12: note = L-ornithine; SITE 13: note = alpha-methyl-leucine; SITE 17: note = Lysine is chemically modified through conjugation of the epsilon-amino group of the Lysine side chain with (2-[2-(2-Amino-ethoxy)-ethoxy]-acetyl)-(gamma-Glu)) [Example 119]	73.5	43.4	–	–	–	–	–	–	–	–	–	–	–	–
YXQGTFTSDYSQXLDKKAQXAFIEYLLEGGESSGAPPPSGS (synthetic construct; SITE 2: note = 2-Aminoisobutyric Acid; SITE 13: note = alpha-methyl-leucine; SITE 17: note = Lysine is chemically modified through conjugation of the epsilon-amino group of the Lysine side chain with (2-[2-(2-Amino-ethoxy)-ethoxy]-acetyl)-(gamma-Glu)-CO-(CH2) 16-CO2H; SITE 20: n) [Example 362]	22.8	77.5	–	–	–	6.04	0.262	1.77	1450	38.7	450	–	–	–
YXQGTXTSDXXIXLDXKAQXEFIEXLVEGGPSSGAPPPSGS (synthetic construct; SITE 2: note = 2-Aminoisobutyric Acid; SITE 6: note = alpha-methyl-2-fluoro-L-phenylalanine; SITE 10: note = 3-(4-Pyridyl)-L-alanine; SITE 11: note = alpha-methyl-L-serine; SITE 13: note = alpha-methyl-leucine; SITE 16: note = L-ornithine; SITE 17: note = Lysine is chemically mo) [Example 694]	21.8	97.3	–	–	–	–	–	–	–	–	–	–	–	–
Y[Aib]QGTFTSDYSI[αMeL]LDKQAAK([AEEA-AEEA-γGlu-C20 diacid])QFVEWLIA[Aib]GPSSGEPPPAEG-NH2 [Example 334]	28.3	96.8	–	–	–	6.77	0.223	0.707	–	–	–	2070	72.1	171
Y[Aib]QGTFTSDYS[Dap][αMeL]LDKK([AEEA-γGlu-C18 diacid])AQ[Aib]AFIEYLLEGGESSGAPPPSGS-NH2 [Example 360]	214	66.1	–	–	–	5.28	0.45	5.86	1470	78.3	989	–	–	–
YXQGTXTSDXSILLDKKAQXAFIEYLEEGGPSSGAPPPSGTGE (synthetic construct; SITE 2: note = 2-Aminoisobutyric Acid; SITE 6: note = alpha-methyl-2-fluoro-L-phenylalanine; SITE 10: note = 3-(4-Pyridyl)-L-alanine; SITE 17: note = Lysine is chemically modified through conjugation of the epsilon-amino group of the Lysine side chain with (gamma-Glu)2-CO-(CH2)1) [Example 510]	11.8	113	–	–	–	–	–	–	–	–	–	–	–	–
